Experimental data: article PMC7973640

Molecular target: PaxA T1-CDD di-domain construct (thiolation domain followed by the C-terminal docking domain of PaxA) (Xenorhabdus cabanillasii JM26)
Test: SEC + NMR titration; analytical gel filtration and NMR titration experiments; complex in slow exchange on the NMR time scale; NMR at 293 K, samples in 50 mM sodium phosphate pH 6.5, 100 mM NaCl, 2 mM β-mercaptoethanol, 5% D2O

PaxB N-terminal docking domain (amino acids 1-30 of PaxB followed by a non-native tyrosine) (domain or fragment)
stoichiometry N: 1
